Earlier results in patent publication US7759315B2, “Treatment of inflammatory conditions of the intestine” (CSL Behring AG, priority 2005, dated 2010).
Non-standard residues stand in square brackets, D forms with d. No end group written: not given here. Nal = naphthylalanine (source code Z); Aib = CC(C)(N)C(=O)O

How the values were obtained:
[1] = percent helicity; for He (%): micelles
LCAT = molecular target: T1, LCAT (Homo sapiens, UniProt P04180)
T1 sequence (P04180 25-440): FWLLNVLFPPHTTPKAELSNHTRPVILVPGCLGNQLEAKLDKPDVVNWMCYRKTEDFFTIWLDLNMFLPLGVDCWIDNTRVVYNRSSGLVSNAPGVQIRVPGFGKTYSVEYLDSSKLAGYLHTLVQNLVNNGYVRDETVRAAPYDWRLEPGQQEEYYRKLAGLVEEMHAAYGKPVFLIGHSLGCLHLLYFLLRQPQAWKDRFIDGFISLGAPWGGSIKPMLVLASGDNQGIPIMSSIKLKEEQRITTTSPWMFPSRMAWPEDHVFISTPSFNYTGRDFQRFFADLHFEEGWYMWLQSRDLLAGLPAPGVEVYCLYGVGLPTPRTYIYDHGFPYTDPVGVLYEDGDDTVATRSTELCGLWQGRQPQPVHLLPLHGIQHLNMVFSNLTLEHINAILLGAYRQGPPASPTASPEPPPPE

ACTIVITY (%) LCAT (LCAT)	Substance	He (%) [1]	Crohn's disease activity index (CDAI) (Crohn's disease patients)	histopathological and endoscopic inflammation (Crohn's disease patients)	He (%) free ([1]; free peptide)
25%	PVLDLWRELLNEXLEALKQKLK (PVLDLWRELLNE[Aib]LEALKQKLK; not fully specified (C-terminus)) [Peptide 41]	73%			
5%	PVLDEFREKLNEALEALKQKLK [Peptide 94, [A^13]-Consensus 22-mer peptide (Anantharamaiah et al., 1990), reference compound]	70%			
38%	PVLDLFRELLNELLEALKQKLK^† [Peptide 30]	90%			
11%	LDDLLQKWAEAFNQLLKK [Peptide 237, Id-3 peptide (Labeur et al., 1997), reference compound]	66%			
5%	pvldlfrellneXlealkgklk ([dP][dV][dL][dD][dL][dF][dR][dE][dL][dL][dN][dE][Aib][dL][dE][dA][dL][dK][dQ][dK][dL][dK]) [Peptide 96]	85%			
12%	PVLDEFRELLYEXLEALKQKLK (PVLDEFRELLYE[Aib]LEALKQKLK; not fully specified (C-terminus)) [Peptide 70]	78%			
79%	PVLDLFRELLNELLEAZKQKLK (PVLDLFRELLNELLEA[Nal]KQKLK; not fully specified (C-terminus)) [Peptide 10]	87%			
	Infliximab		significant reduction	attenuation	
8%	PVLDAFRELLEALAQLKK [Peptide 223]	56%			
25%	PVLDEFREKLNEXWEALKQKLK (PVLDEFREKLNE[Aib]WEALKQKLK; not fully specified (C-terminus)) [Peptide 42]	74%			
30%	PVLDLFRELLELLKQKLK [Peptide 217]	78%			
25%	pvldefreklneXlealkgklk ([dP][dV][dL][dD][dE][dF][dR][dE][dK][dL][dN][dE][Aib][dL][dE][dA][dL][dK][dQ][dK][dL][dK]) [Peptide 44]	86%			
29%	PVLDLFREWLNELLEALKQKLK [Peptide 37]	75%			
40%	PVLDLFRELLNELWEALKQKLK [Peptide 28]	98%			
21%	PVLDLFRELLWEXLEALKQKLK (PVLDLFRELLWE[Aib]LEALKQKLK; not fully specified (C-terminus)) [Peptide 50]	84%			
15%	PVLDLFRNLLEELLEALQKKLK [Peptide 66]	82%			
47%	PVLDLFRELLNELLQKLK [Peptide 209]	71%			
80%	PVLDLFRELLNEXLEALKQKLK (PVLDLFRELLNE[Aib]LEALKQKLK; not fully specified (C-terminus)) [Peptide 6]	93%			
16%	PVLDEWREKLNEXLEALKQKLK (PVLDEWREKLNE[Aib]LEALKQKLK; not fully specified (C-terminus)) [Peptide 62]	85%			
19%	P~~~LFRELLNELLEALKQKLK (PLFRELLNELLEALKQKLK) [Peptide 55]	72%			
7%	pllellkellqellealkqklk ([dP][dL][dL][dE][dL][dL][dK][dE][dL][dL][dQ][dE][dL][dL][dE][dA][dL][dK][dQ][dK][dL][dK]; not fully specified (C-terminus); printed as pllellkellqellealkqklk) [Peptide 87]	100%			
34%	PVLDLFLELLNEXLEALKQKLK (PVLDLFLELLNE[Aib]LEALKQKLK; not fully specified (C-terminus)) [Peptide 31]	98%			

ACTIVITY (%) LCAT (LCAT)	Substance	He (%) [1]	Crohn's disease activity index (CDAI) (Crohn's disease patients)	histopathological and endoscopic inflammation (Crohn's disease patients)	He (%) free ([1]; free peptide)
20%	PVLDLFWELLNEXLEALKQKLK (PVLDLFWELLNE[Aib]LEALKQKLK; not fully specified (C-terminus)) [Peptide 51]	82%			
2%	KLKQKLAELLENLLERFLDLVP [Peptide 99]	88%			
86%	PVLELFENLLERLLDALQKKLK [Peptide 146]	100%			
3%	EWLKAFYEKVLEKLKELF [Peptide 248, [Glu^1.8; Leu^5,11,17]; 18A peptide (Epand et al., 1987), reference compound]	45%			
100%	GVLELFENLLERLLDALQKKLK [Peptide 145]	51%			
19%	PVLDLFRELLNEWLEALKQKLK [Peptide 54]	71%			
60%	PVLDLFRELWNELLEALKQKLK [Peptide 15]	60%			
81%	PLLDLFRELLEELKQKLK* (not fully specified (N-terminus, C-terminus); printed as PLLDLFRELLEELKQKLK*) [Peptide 197]	70%			
5%	PVLDLFRELLNLXLEALKQKLK (PVLDLFRELLNL[Aib]LEALKQKLK; not fully specified (C-terminus)) [Peptide 95]	sp			
4%	DWLKAFYDKVFEKFKEFF [Peptide 245]	77%			
0%	PVLDEFREKLNEPLEALKQKLK [Peptide 113]	22%			
0%	PVLDLFRWLLNEXLEALKQKLK (PVLDLFRWLLNE[Aib]LEALKQKLK; not fully specified (C-terminus)) [Peptide 108]	55%			
63%	PVLELFENLWERLLDALQKKLK [Peptide 149]	54%			
5%	DWFKAFYDKVAEKFKEAF [Peptide 243]	64%			
76%	PVLDLFRELWEELKQKLK* (not fully specified (N-terminus, C-terminus); printed as PVLDLFRELWEELKQKLK*) [Peptide 199]	77%			
11%	PVLDLFRELLNEXLWALKQKLK (PVLDLFRELLNE[Aib]LWALKQKLK; not fully specified (C-terminus)) [Peptide 72]	sp			
120%	PVLDLFRELLNELLEZLKQKLK (PVLDLFRELLNELLE[Nal]LKQKLK; not fully specified (C-terminus)) [Peptide 1]	85%			
98%	PVLDLFRELLNELLEWLKQKLK [Peptide 3]	95%			
83%	PVLDLFRELLNEGLEALKQKLK [Peptide 8]	90%			
32%	PVLDZFRELLNELLEALKQKLK (PVLD[Nal]FRELLNELLEALKQKLK; not fully specified (C-terminus)) [Peptide 34]	67%			
31%	PVLDWFRELLNELLEALKQKLK [Peptide 35]	59%			49 (sp) %

Substance	ACTIVITY (%) LCAT (LCAT)	He (%) [1]	Crohn's disease activity index (CDAI) (Crohn's disease patients)	histopathological and endoscopic inflammation (Crohn's disease patients)	He (%) free ([1]; free peptide)
PVLDLFRELLNELLEALKQKLK [Peptide 4]	93%	95%			
